B1: Genetic suppressor element 1 (Homo sapiens), Q14687 (parent)
chain: MKGMSHEPKSPSLGMLSTATRTTATVNPLTPSPLNGALVPSGSPATSSALSAQAAPSSSFAAALRKLAKQAEEPRGSSLSSESSPVSSPATNHSSPASTPKRVPMGPIIVPPGGHSVPSTPPVVTIAPTKTVNGVWRSESRQDAGSRSSSGGRERLIVEPPLPQEKAGGPAIPSHLLSTPYPFGLSPSSVVQDSRFPPLNLQRPVHHVVPPSTVTEDYLRSFRPYHTTDDLRMSSLPPLGLDPATAAAYYHPSYLAPHPFPHPAFRMDDSYCLSALRSPFYPIPTPGSLPPLHPSAMHLHLSGVRYPPELSHSSLAALHSERMSGLSAERLQMDEELRREREREREREREREADREREKEREREREKEREQEKEREREKERERELERQREQRAREKELLAAKALEPSFLPVAELHGLRGHATEERGKPSEQLTPTRAEKLKDAGLQAPKPVQHPLHPVPTPHHTVPSLISNHGIFSLPSSSAATALLIQRTNEEEKWLARQRRLRQEKEDRQSQVSEFRQQVLEQHLDMGRPPVPAEAEHRPESTTRPGPNRHEPGGRDPPQHFGGPPPLISPKPQLHAAPTALWNPVSLMDNTLETRRAESHSLHSHPAAFEPSRQAAVPLVKVERVFCPEKAEEGPRKREPAPLDKYQPPPPPPREGGSLEHQPFLPGPGPFLAELEKSTQTILGQQRASLPQAATFGELSGPLKPGSPYRPPVPRAPDPAYIYDEFLQQRRRLVSKLDLEERRRREAQEKGYYYDLDDSYDESDEEEVRAHLRCVAEQPPLKLDTSSEKLEFLQLFGLTTQQQKEELVAQKRRKRRRMLRERSPSPPTIQSKRQTPSPRLALSTRYSPDEMNNSPNFEEKKKFLTIFNLTHISAEKRKDKERLVEMLRAMKQKALSAAVADSLTNSPRDSPAVSLSEPATQQASLDVEKPVGVAASLSDIPKAAEPGKLEQVRPQELSRVQELAPASGEKARLSEAPGGKKSLSMLHYIRGAAPKDIPVPLSHSTNGKSKPWEPFVAEEFAHQFHESVLQSTQKALQKHKGSVAVLSAEQNHKVDTSVHYNIPELQSSSRAPPPQHNGQQEPPTARKGPPTQELDRDSEEEEEEDDEDGEDEEEVPKRKWQGIEAVFEAYQEHIEEQNLERQVLQTQCRRLEARHYSLSLTAEQLSHSVAELRSQKQKMVSERERLQAELDHLRKCLALPAMHWPRGYLKGYPR
partner: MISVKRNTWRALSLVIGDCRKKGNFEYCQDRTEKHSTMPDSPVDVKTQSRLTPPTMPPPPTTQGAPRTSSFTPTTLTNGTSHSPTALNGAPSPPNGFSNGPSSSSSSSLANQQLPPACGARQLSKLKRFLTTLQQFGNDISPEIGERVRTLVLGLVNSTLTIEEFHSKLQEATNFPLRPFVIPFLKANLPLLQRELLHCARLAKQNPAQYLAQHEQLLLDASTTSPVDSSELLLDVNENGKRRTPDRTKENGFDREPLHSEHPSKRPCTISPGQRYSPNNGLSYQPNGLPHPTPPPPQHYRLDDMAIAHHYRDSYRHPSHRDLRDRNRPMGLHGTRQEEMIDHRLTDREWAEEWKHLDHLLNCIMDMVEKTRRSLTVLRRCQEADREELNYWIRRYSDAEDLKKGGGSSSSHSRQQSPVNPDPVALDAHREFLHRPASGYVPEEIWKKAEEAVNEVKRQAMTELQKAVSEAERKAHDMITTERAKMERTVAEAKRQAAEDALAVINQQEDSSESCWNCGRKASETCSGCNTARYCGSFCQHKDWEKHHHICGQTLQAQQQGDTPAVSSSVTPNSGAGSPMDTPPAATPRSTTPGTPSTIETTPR
B2: Pre-B-cell leukemia transcription factor 4 (Homo sapiens), Q9BYU1 (parent)
chain: MAAPPRPAPSPPAPRRLDTSDVLQQIMAITDQSLDEAQARKHALNCHRMKPALFSVLCEIKEKTVVSIRGIQDEDPPDAQLLRLDNMLLAEGVCRPEKRGRGGAVARAGTATPGGCPNDNSIEHSDYRAKLSQIRQIYHSELEKYEQACREFTTHVTNLLQEQSRMRPVSPKEIERMVGAIHGKFSAIQMQLKQSTCEAVMTLRSRLLDARRKRRNFSKQATEVLNEYFYSHLNNPYPSEEAKEELARKGGLTISQVSNWFGNKRIRYKKNMGKFQEEATIYTGKTAVDTTEVGVPGNHASCLSTPSSGSSGPFPLPSAGDAFLTLRTLASLQPPPGGGCLQSQAQGSWQGATPQPATASPAGDPGSINSSTSN
partner: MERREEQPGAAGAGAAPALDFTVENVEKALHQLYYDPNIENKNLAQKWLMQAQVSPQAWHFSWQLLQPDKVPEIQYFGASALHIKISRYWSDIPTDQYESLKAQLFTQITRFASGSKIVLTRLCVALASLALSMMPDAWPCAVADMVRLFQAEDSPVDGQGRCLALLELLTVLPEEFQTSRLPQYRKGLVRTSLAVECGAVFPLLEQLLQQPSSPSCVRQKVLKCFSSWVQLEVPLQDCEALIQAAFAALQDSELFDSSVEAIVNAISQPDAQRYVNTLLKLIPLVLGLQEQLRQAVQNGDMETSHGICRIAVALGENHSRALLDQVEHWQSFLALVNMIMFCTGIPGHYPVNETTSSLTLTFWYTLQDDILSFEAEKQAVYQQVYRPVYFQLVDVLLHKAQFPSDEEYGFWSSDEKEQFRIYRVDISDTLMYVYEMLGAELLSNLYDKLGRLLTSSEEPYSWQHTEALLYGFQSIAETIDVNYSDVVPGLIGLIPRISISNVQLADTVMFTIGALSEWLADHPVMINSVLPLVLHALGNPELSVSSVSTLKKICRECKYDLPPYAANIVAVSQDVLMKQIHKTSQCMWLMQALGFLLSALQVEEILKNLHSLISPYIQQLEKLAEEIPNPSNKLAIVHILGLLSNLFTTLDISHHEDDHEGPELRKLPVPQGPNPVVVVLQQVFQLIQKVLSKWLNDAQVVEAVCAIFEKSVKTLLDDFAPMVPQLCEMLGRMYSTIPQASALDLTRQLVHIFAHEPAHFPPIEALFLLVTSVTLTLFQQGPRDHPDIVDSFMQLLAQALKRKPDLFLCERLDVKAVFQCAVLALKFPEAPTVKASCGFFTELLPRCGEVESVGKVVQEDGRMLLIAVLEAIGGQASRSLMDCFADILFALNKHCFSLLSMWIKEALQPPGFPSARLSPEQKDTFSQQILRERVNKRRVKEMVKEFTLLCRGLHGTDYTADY
B3: Kinetochore protein NDC80 homolog (Homo sapiens), O14777 (parent)
chain: MKRSSVSSGGAGRLSMQELRSQDVNKQGLYTPQTKEKPTFGKLSINKPTSERKVSLFGKRTSGHGSRNSQLGIFSSSEKIKDPRPLNDKAFIQQCIRQLCEFLTENGYAHNVSMKSLQAPSVKDFLKIFTFLYGFLCPSYELPDTKFEEEVPRIFKDLGYPFALSKSSMYTVGAPHTWPHIVAALVWLIDCIKIHTAMKESSPLFDDGQPWGEETEDGIMHNKLFLDYTIKCYESFMSGADSFDEMNAELQSKLKDLFNVDAFKLESLEAKNRALNEQIARLEQEREKEPNRLESLRKLKASLQGDVQKYQAYMSNLESHSAILDQKLNGLNEEIARVELECETIKQENTRLQNIIDNQKYSVADIERINHERNELQQTINKLTKDLEAEQQKLWNEELKYARGKEAIETQLAEYHKLARKLKLIPKGAENSKGYDFEIKFNPEAGANCLVKYRAQVYVPLKELLNETEEEINKALNKKMGLEDTLEQLNAMITESKRSVRTLKEEVQKLDDLYQQKIKEAEEEDEKCASELESLEKHKHLLESTVNQGLSEAMNELDAVQREYQLVVQTTTEERRKVGNNLQRLLEMVATHVGSVEKHLEEQIAKVDREYEECMSEDLSENIKEIRDKYEKKATLIKSSEE
partner: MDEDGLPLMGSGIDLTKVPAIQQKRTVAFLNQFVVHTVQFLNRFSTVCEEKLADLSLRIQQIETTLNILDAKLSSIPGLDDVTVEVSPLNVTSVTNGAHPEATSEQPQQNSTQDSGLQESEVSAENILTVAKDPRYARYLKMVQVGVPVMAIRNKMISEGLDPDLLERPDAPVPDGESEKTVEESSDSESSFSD
B4: Casein kinase II subunit alpha (Homo sapiens), P68400 (parent)
chain: MSGPVPSRARVYTDVNTHRPREYWDYESHVVEWGNQDDYQLVRKLGRGKYSEVFEAINITNNEKVVVKILKPVKKKKIKREIKILENLRGGPNIITLADIVKDPVSRTPALVFEHVNNTDFKQLYQTLTDYDIRFYMYEILKALDYCHSMGIMHRDVKPHNVMIDHEHRKLRLIDWGLAEFYHPGQEYNVRVASRYFKGPELLVDYQMYDYSLDMWSLGCMLASMIFRKEPFFHGHDNYDQLVRIAKVLGTEDLYDYIDKYNIELDPRFNDILGRHSRKRWERFVHSENQHLVSPEALDFLDKLLRYDHQSRLTAREAMEHPYFYTVVKDQARMGSSSMPGGSTPVSSANMMSGISSVPTPSPLGPLAGSPVIAAANPLGMPVPAAAGAQQ
partner: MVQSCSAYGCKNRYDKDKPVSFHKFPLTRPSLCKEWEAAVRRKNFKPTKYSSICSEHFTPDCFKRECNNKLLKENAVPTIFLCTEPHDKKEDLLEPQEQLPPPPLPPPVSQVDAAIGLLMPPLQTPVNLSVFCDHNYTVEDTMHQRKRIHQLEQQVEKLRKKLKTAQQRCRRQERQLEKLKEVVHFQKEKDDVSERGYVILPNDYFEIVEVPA
B5: Keratin, type I cuticular Ha8 (Homo sapiens), O76015 (parent)
chain: MTSSYSSSSCPLGCTMAPGARNVSVSPIDIGCQPGAEANIAPMCLLANVAHANRVRVGSTPLGRPSLCLPPTCHTACPLPGTCHIPGNIGICGAYGENTLNGHEKETMQFLNDRLANYLEKVRQLEQENAELEATLLERSKCHESTVCPDYQSYFHTIEELQQKILCSKAENARLIVQIDNAKLAADDFRIKLESERSLRQLVEADKCGTQKLLDDATLAKADLEAQQESLKEEQLSLKSNHEQEVKILRSQLGEKLRIELDIEPTIDLNRVLGEMRAQYEAMLETNRQDVEQWFQAQSEGISLQDMSCSEELQCCQSEILELRCTVNALEVERQAQHTLKDCLQNSLCEAEDRFGTELAQMQSLISNVEEQLSEIRADLERQNQEYQVLLDVKTRLENEIATYRNLLESEDCKLPCNPCSTSPSCVTAPCAPRPSCGPCTTCGPTCGASTTGSRF
partner: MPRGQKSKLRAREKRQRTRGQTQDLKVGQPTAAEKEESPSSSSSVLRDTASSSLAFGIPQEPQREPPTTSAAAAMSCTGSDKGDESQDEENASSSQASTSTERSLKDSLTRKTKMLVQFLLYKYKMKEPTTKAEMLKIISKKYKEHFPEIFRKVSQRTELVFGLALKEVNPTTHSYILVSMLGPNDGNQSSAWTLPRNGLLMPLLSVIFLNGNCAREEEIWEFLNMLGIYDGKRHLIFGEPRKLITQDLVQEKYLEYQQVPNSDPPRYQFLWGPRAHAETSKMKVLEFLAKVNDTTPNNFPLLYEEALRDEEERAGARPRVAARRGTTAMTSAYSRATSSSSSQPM

Variants of: B1
Conditions: with mtg8_human RUNX1T1, Q06455

Row | effect of a mutation on the interaction | Variant
1 | with no effect | E368K

Variants of: B2
Conditions: with ipo13_human IPO13, O94829

Row | effect of a mutation on the interaction | Variant
2 | disrupting interaction strength | A247T

Variants of: B3
Conditions: with wasc3_human WASHC3, Q9Y3C0

Row | effect of a mutation on the interaction | Variant
3 | with no effect | K288E

Variants of: B4
Conditions: with thap1_human THAP1, Q9NVV9

Row | effect of a mutation on the interaction | Variant
4 | with no effect | K198R

Variants of: B5
Conditions: with magb4_human MAGEB4, O15481

Row | effect of a mutation on the interaction | Variant
5 | with no effect | N270K

Reference: IntAct's records for PubMed 29892012
